From patent CN114671953A (BORGI BIOMEDICAL SCIENCE AND TECH HANGZHOU LIMITED COMPANY, dated 2022)
Changes are numbered by the printed parent chain.

B1: CMB7-11 (Fc fusion)
chain: QVQLVESGGGLVQAGGSLRLSCAASGSIFSISAMGWFRQAPGNQREMVAAITKGGSVNYADSVKGRFTITRDNAKNTVYLQMNSLKPEDTAVYYCAAAVGAPFEYDYWGQGTQVTVSS
notes: Tested as VHH fused to human Fc; also called VHH-Fc; not shown: human Fc fused to the VHH
B2: CMB7-22 (Fc fusion)
chain: QVQLVESGGGLVQAGGSLRLSCAASGSIFSINAMGWFRQAPGKQRELVAAITSGGSTNYAVSVKGRFTISSDKAKNTVYLQMNSLKPEDTAVYYCAAARGEPFEYEYWGQGTLVTVSS
notes: as for B1
B3: CMB7-7 (Fc fusion)
chain: B2 chain with V48A, N58K, V61D, S71R, K73N, S84R, A91G, R99T, E106N, L113Q
notes: as for B1
B4: CMB7-8 (Fc fusion)
chain: B2 chain with S27N, I31V, T57I, N58R, A60V, V61D, S71R, K73N, F103Y, E106D
notes: as for B1
B5: CMB7-6 (Fc fusion)
chain: QVQLVESGGGLVQPGGSLRLSCAASGSIFSINVMGWYRQAPGKQRELVATITSGGSVNYADSVKGRFTISRDNANNTVYLQMNTLKPEDTAVYYCTADQLGPLGLLSPTIYWGQGTLVTVSS
notes: also called VHH 36; VHH-Fc; not shown: human Fc fused to the VHH
B6: CMB7-20 (Fc fusion)
chain: B5 chain with I31M, V57T, T84S, A97G, L105T, L106F, T109I, I110V, L117Q
notes: as for B1
B7: CMB7-23 (Fc fusion)
chain: B5 chain with I28D, S30T, I51V, V57L, N75K, T84S, L100F, L105H, T109I, L117Q
notes: as for B1
B8: CMB7-9 (Fc fusion)
chain: QVQLVESGGGLVQPGGSLRLSCAASGSIFSINAMGWYRQAPGKQRELVASITNGGSTKYDDSVKGRFTISRDNAKNTVYLQMNSLKPEDTAVYYCAAASLVVGGTWEYDTWGQGTLVTVSS
notes: as for B1
B9: CMB7-18 (Fc fusion)
chain: QVQLVESGGGLVQAGGSLRLSCAASGSIFSINAMGWHRQGPGDQRELVAAITSGGSTKYVDSVKGRFTISRDNAKNTVYLQMNSLKPEDTGVYYCAAMGGSYEYDYWGQGTQVTVSS
notes: as for B1
B10: CMB7-10 (Fc fusion)
chain: QVQLVESGGGLVQAGESLRLSCAASGSIFSINAMAWYRQAPGKQRELVAAITSGGSTKYADSVKGRFTISRDNAKNTVYLQMNSLKPEDTAVYYCAAMDRTTLEYDYWGQGTLVTVSS
notes: as for B1
B11: CMB7-19 (Fc fusion)
chain: B10 chain with E16G, R19G, G26E, I31Y, A35G, Y37F, T57I, T90R, A91G
notes: as for B1
B12: CMB7-12 (Fc fusion)
chain: QVQLVESGGGLVQPGGSLRLACAASGSIFSINVMGWYRQAPGKQREYVASVSRGGSVKYVDSVKGRFTVSRDNAKNTMYLEMNSLKPEDTAIYFCGAETKMGRGFDSWGQGTQVTVSS
notes: as for B1

Target: T1, 人Nectin-4 (human, UniProt Q96NY8 32-349)
T1 construct: construct not described; also called human Nectin-4; PVRL4
T1 sequence (looked up): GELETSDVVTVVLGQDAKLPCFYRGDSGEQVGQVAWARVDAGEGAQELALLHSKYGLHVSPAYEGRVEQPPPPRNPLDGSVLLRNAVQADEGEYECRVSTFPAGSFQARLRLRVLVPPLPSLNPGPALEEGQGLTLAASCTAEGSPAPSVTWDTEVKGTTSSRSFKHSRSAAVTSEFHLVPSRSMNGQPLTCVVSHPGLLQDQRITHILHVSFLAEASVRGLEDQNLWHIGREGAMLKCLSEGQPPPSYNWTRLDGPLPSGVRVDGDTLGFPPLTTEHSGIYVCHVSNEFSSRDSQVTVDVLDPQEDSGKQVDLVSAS
Test: BLI, VHH-Fc on anti-hIgG Fc probe, human Nectin-4 as analyte
Set-up: 响应: unit not given here

Row | Binder | 响应 | Kd
1 | B1 | 0.94 | –
2 | B2 | 0.841 | –
3 | B3 | 0.972 | –
4 | B4 | 0.915 | –
5 | B5 | 0.835 | –
6 | B6 | 0.783 | –
7 | B7 | 0.877 | –
8 | B8 | 0.891 | 530 pM
9 | B9 | 0.729 | 810 pM
10 | B10 | 0.891 | 958 pM
11 | B11 | 0.867 | –
12 | B12 | 0.97 | –
